Experimental data as given in article doi:10.1101/2023.07.21.550003 (bioRxiv, 2023).

Biological target: T1, canonical HER2, extracellular region (residues 22-587) (human, UniProt P04626)
T1 construct: HER2 (ERBB2), human, extracellular region spanning residues 22-587, amplified from the complete cDNA clone BC156755 / P04626; Cloned in a modified p3XFLAG-CMV-25 vector; also called ERBB2; human epidermal growth factor receptor 2; source: HEK293F, transfected, purified from supernatant (HisTrap, Superdex200); not shown: FLAG, N-terminal, kept
Assay: flow cytometry on cells; yeast clones displaying scFv (anti-c-myc-FITC for display) incubated with purified Flag-tagged HER2 variants at room temperature for 2 hours; anti-Flag iFluor 647
Conditions: one partner purified

binding result: binds
B1: Clone 32 (scFv displayed on yeast) (scFv, V domains shown)
VH: EVQLVESGGGLVQPGGSLRLSCAASGFTFGEYTMDWVRQAPGKGLEWVADVNPNSGGSIYNKRFKGRFTLSVDRSKNTLYLQMNSLRAEDTAVYYCARNLGPSFYFDYWGQGTLVTVSS
VL: DIQMTQSPSSLSASVGDRVTITCKASQDVSIGVAWYQQKPGKAPKLLIYSASYRYTGVPSRFSGSGSGTDFTLTISSLQPEDFATYYCQQYYIYPYTFGQGTKVEIK
notes: as the heavy-chain variable region of m4 (Pertuzumab, PDB 1S78), with the changes of clone 32 among the 14 library positions; linker: three repeats of G4S between the VH and VL; as the light-chain variable region of m4 (Pertuzumab, PDB 1S78); The methods also say the library was built 'based on the AAL160 template antibody'; source: S. cerevisiae EBY100, yeast surface display (pCTCON2)
